For two substances, stoichiometry N results are on record in publication PMC9553925.

The target in experiment [1] is ATP synthase subunit-c (T. brucei) (T. brucei (endogenous in procyclic Lister strain 427)). In words: cryo-EM structure; ATP synthase dimers purified from T. brucei procyclic mitochondria in GDN with added β-DDM and phospholipids, pH 8.0; consensus dimer 3.2 Å, membrane region 2.7 Å, peripheral stalk 3.7 Å, rotor 3.7 Å, ten rotational substates 3.5–4.3 Å.
In experiment [2] the target is Trypanosoma brucei mitochondrial F1Fo ATP synthase (monomer unit of the dimer) (T. brucei (endogenous in procyclic Lister strain 427)) (UniProt P24499). The experiment is described as above.

The stoichiometry N is a count of units in the complex or per binding partner. The substance “ATP synthase subunit-c (T. brucei) (natural protein)” yielded a stoichiometry N in experiment [1] of 10.

“Trypanosoma brucei mitochondrial F1Fo ATP synthase (monomer unit of the dimer) (from UniProt P24499 1-229) (complex)”: the stoichiometry N in experiment [2] came to 2.
